Experimental findings from patent US20030124530 (Genelabs Technologies, Inc., published 2003) are described below.

Data set [1] concerns the target T1, UL9-COOH (C-terminal DNA-binding fragment of UL9) (Herpes simplex virus 1, UniProt P10193 P10193:535-851). Description: EMSA; flanks have little effect on off-rate; disrupted by distamycin A. The conditions noted are these: tags: GST fusion from pGEX-2T, thrombin-cleaved; E. coli JM109; bacterial extracts also used; label: 32P.
For data set [2], the target named is T1, UL9-COOH (C-terminal DNA-binding …). Briefly: EMSA; flanks have little effect on off-rate; disrupted by distamycin A and doxorubicin. The conditions noted are these: tags: GST fusion from pGEX-2T, thrombin-cleaved; E. coli JM109; bacterial extracts also used; label: 32P.
Data set [3] shares this target. Briefly: EMSA; flanks have little effect on off-rate. The conditions noted are these: tags: GST fusion from pGEX-2T, thrombin-cleaved; E. coli JM109; bacterial extracts also used; label: 32P.
Data set [4] has the same target. Briefly: EMSA; flanks have little effect on off-rate; filter binding same; disrupted by actinomycin D. The conditions noted are these: tags: GST fusion from pGEX-2T, thrombin-cleaved; E. coli JM109; bacterial extracts also used; label: 32P. In general terms: Mobility shift assays separate free from complexed probe on a gel.
For data set [5] the target is unchanged. Description: EMSA; flanks have little effect on off-rate; particularly disrupted by doxorubicin. The note with it: tags: GST fusion from pGEX-2T, thrombin-cleaved; E. coli JM109; bacterial extracts also used; label: 32P.
For data set [6] the target is unchanged. Description: EMSA; flanks have little effect on off-rate; disrupted by actinomycin D and doxorubicin. The conditions noted are these: tags: GST fusion from pGEX-2T, thrombin-cleaved; E. coli JM109; bacterial extracts also used; label: 32P.
Data set [7] has the same target. Description: EMSA; flanks have little effect on off-rate; disrupted by doxorubicin. The note with it: tags: GST fusion from pGEX-2T, thrombin-cleaved; E. coli JM109; bacterial extracts also used; label: 32P.
For data set [8] the target is unchanged. Description: competition; unlabelled competitor in dissociation assay. The conditions noted are these: tags: GST fusion from pGEX-2T, thrombin-cleaved; E. coli JM109; bacterial extracts also used.

T1 sequence (P10193 535-851, one chain of several): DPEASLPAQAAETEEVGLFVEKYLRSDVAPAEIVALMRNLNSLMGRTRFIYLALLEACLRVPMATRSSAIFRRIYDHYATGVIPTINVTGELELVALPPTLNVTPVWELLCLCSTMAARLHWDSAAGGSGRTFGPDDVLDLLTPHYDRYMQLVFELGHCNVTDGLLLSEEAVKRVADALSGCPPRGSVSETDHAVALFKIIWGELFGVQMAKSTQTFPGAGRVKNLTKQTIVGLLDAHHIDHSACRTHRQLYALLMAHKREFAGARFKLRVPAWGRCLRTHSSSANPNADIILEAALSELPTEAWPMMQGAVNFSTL

B1: UL9 polyA (dsDNA)
DNA 1: GGAAAAAAACGTTCGCACTTAAAAAAAAGG
DNA 2: CCTTTTTTTTAAGTGCGAACGTTTTTTTCC
In the case of B1, the binding result in data set [1] is listed as “binds”.

B2: UL9 polyT (dsDNA)
DNA 1: GGTTTTTTTCGTTCGCACTTTTTTTTTTGG
DNA 2: CCAAAAAAAAAAGTGCGAACGAAAAAAACC
On to B2, for which, in data set [2], the binding result is recorded as “binds”.

B3: FIG. 5 oligo SEQ ID NO:610 (dsDNA)
DNA 1: GGACGCACGCGTTCGCACTTGCAGCAGCGG
DNA 2: CCGCTGCTGCAAGTGCGAACGCGTGCGTCC
Regarding B3, the binding result in data set [3] is recorded as “binds”.

B4: UL9 CCCG (dsDNA)
DNA 1: GGCCCGCCCCGTTCGCACTTCCCGCCCCGG
DNA 2: CCGGGGCGGGAAGTGCGAACGGGGCGGGCC
On to B4, for which the binding result in data set [4] was “binds”.

B5: oriEco3 (dsDNA)
DNA 1: GGCGAATTCGATCGTTCGCACTTCGTCCCAAT
DNA 2: ATTGGGACGAAGTGCGAACGATCGAATTCGCC
Regarding B5, in data set [5], the binding result is “binds”.

B6: UL9 GGGC (dsDNA)
DNA 1: GGCGGGCGCCGTTCGCACTTGGGCGGGCGG
DNA 2: CCGCCCGCCCAAGTGCGAACGGCGCCCGCC
Turning to B6, the binding result in data set [6] was “binds”.

B7: oriEco2 (dsDNA)
DNA 1: GGCGAATTCGACGTTCGCACTTCGTCCCAAT
DNA 2: ATTGGGACGAAGTGCGAACGTCGAATTCGCC
In the case of B7, the binding result in data set [7] is listed as “binds”.

B8: ATori1 (dsDNA)
DNA 1: GCGTATATATCGTTCGCACTTCGTCCCAAT
DNA 2: ATTGGGACGAAGTGCGAACGATATATACGC
With B8, the binding result in data set [3] was “binds”.

B9: 17 bp UL9 competitor (dsDNA)
DNA 1: GGTCGTTCGCACTTCGC
DNA 2: GCGAAGTGCGAACGACC
Regarding B9, in data set [8], the binding result is reported as “binds”.

B10: UL9 ATAT (dsDNA)
DNA 1: GGATATATACGTTCGCACTTTAATTATTGG
DNA 2: CCAATAATTAAAGTGCGAACGTATATATCC
B10: in data set [1], the binding result is “binds”.
